The values that follow are results of earlier work, collected in article PMC3726369.

A word on the Kd: it is the constant that tells how readily two partners part at equilibrium.

Like-named read-outs stand apart in the source and are kept apart here.

In series [1] the target is LH receptor (Homo sapiens) (UniProt P22888).
In series [2] the target is LH receptor (Rattus norvegicus) (UniProt P16235).
The target in series [3] is LH receptor (Homo sapiens) (UniProt P22888). The source holds these as a separate data set.

Chain of UniProt P22888 (P22888 27-699): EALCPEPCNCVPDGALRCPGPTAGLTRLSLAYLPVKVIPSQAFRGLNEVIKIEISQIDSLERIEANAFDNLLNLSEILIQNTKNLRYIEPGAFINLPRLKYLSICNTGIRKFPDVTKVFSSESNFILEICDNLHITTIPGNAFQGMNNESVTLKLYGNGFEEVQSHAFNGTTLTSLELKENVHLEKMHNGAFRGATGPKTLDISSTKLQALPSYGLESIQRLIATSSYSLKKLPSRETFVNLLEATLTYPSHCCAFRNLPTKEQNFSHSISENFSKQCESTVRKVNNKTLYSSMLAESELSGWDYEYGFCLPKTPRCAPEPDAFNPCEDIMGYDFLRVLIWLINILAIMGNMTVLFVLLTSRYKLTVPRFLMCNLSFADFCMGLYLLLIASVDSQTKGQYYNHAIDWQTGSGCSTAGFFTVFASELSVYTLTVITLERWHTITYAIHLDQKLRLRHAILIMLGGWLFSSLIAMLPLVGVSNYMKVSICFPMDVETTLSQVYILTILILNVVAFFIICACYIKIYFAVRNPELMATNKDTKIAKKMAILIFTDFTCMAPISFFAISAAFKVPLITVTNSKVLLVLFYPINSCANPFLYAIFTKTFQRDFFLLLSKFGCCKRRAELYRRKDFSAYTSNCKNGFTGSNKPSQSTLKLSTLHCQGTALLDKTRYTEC
Chain of UniProt P16235 (P16235 27-700): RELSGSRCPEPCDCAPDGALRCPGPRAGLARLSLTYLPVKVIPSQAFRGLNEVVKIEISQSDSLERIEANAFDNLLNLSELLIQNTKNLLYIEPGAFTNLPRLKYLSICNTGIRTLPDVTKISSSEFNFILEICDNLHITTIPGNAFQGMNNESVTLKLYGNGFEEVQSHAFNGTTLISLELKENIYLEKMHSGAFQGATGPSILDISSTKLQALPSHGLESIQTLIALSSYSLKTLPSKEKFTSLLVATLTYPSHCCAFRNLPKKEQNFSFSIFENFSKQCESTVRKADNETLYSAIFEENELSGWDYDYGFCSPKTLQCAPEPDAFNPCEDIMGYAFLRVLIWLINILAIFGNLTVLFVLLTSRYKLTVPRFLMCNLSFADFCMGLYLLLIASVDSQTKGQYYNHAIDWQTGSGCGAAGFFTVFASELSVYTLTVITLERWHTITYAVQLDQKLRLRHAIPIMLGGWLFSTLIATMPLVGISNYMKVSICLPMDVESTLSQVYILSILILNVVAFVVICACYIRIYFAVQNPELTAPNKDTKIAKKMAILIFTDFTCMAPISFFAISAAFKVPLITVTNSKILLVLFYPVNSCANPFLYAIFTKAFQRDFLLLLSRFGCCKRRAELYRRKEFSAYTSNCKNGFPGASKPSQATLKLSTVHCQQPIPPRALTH

In the case of hCG (from UniProt P01215), the Kd in series [1] was 4 nM. LH (from UniProt P01215): the figures for the Kd in series [2] and in series [3] were 0.09 nM and 9 nM, respectively.
